In patent publication US20240093191A1, “COMPOSITIONS AND METHODS FOR TREATING DISEASE ASSOCIATED WITH DUX4 OVEREXPRESSION” (RESEARCH INSTITUTE AT NATIONWIDE CHILDREN'S HOSPITAL, priority 2021, published 2024):

Legend:
Type in all cases: cell-based, human
[1] = tested on: mir-675-5p; assay: ddPCR of all mature mir-675-5p sequences (TaqMan Advanced miRNA cDNA synthesis) in HEK293 cells
Description: Digital Droplet PCR (ddPCR). For mir-675 and mi405 constructs, RNA extraction was carried out as described for QPCR above. For cDNA synthesis, the TaqMan advanced cDNA synthesis kit (Thermo Fisher) was used and cDNA was prepared by following manufacturer's instructions. ddPCR was carried out using 1× ddPCR Supermix for probes (No dUTP) (Bio-Rad), 1× commercially available mir-675 advanced TaqMan probe, or a custom made mi405 advanced TaqMan probe (ThermoFisher) and 50 ng of cDNA. For DUX4 cDNA synthesis, the High-Capacity cDNA Reverse Transcription Kit (Applied Biosystems) was used according to manufacturer's instructions. Within the same cDNA reaction, 1×RT random hexamer primers and 25 pmoles of the Oligo(dT) primer were used to generate cDNA for DUX4 and DUX4-responsive biomarkers and for mouse Rpl13A, used as a reference gene. To quantify DUX4, the ddPCR reaction mixture (20 μL) contained 1× ddPCR Evagreen Supermix (Bio-Rad), 1 μM of forward and reverse DUX4 primers (Sharma et al., J Genet Syndr Gene Ther 2016 August; 7(4):303. doi: 10.4172/2157-7412.1000303. Epub 2016 Aug. 8), and 50 ng of cDNA. To quantify Rpl13A and DUX4-responsive biomarkers (Trim36 and Wfdc3), the 1× ddPCR Supermix for probes (No dUTP) and TaqMan specific probes were used for each of the genes. Droplets were generated using the Automatic Droplet generator QX200 AutoDG (Bio-Rad), the reactions were amplified in a C1000 Touch™ Thermal Cycler with 96-Deep Well Reaction Module (Bio-Rad). Cycling conditions were set up following the QX200 ddPCR Evagreen Supermix protocol. All assays are compatible with an annealing temperature of 58° C. Droplets were then read using the QX200 droplet reader (Bio-Rad). Finally, data were analyzed using the QuantaSoft analysis software (Bio-Rad). For quantification, each reaction of 20 μL was estimated to give at least 10,000 acceptable droplets.
In order to quantify the level of all these mature sequences, the TaqMan advanced miRNA cDNA synthesis method that uses universal reverse transcription (RT) chemistry to synthesize cDNA templates that can be quantified using the TaqMan Advanced miRNA probes was used. In this method, most of the processed mature miRNA sequences were quantified.

[2] = tested on: mir-675-5p; assay: TaqMan QRT-PCR of mature mir-675-5p from transfected constructs in HEK293 cells; conditions: HEK293, 24 h post-transfection; for mir-675-5p levels compared to U6.mir-675: 23 mer mature mir-675-5p
Source text: RNA Extraction. RNA from HEK293 cells was extracted for Northern blot assay and QPCR. The miRVANA miRNA isolation kit (ThermoFisher Scientific) was used according to manufacturer's directions to extract total RNA encompassing small RNAs, such as miRNAs. To extract RNA from C57BL/6 skeletal muscles, cryopreserved muscles were crushed under suboptimal temperatures using liquid nitrogen and using mortar and pestle. Crushed muscles were then lysed using […] of miRVANA miRNA isolation kit lysis buffer, a TissueLyser and 1.0 mm zirconia beads (Biospec). Muscle was homogenized at 30 Hz for 30 sec with 10 sec rest. This was repeated 3 times.
TaqMan Gene Expression Assay. QRT-PCR was carried out to quantify the expression of pri-mir-675, mir-675-5p and mi405 using TaqMan probes (ThermoFisher Scientific). Experiments were started by eliminating genomic DNA from the RNA preparations, and then cDNA was generated using the High-Capacity cDNA Reverse Transcription Kit (Applied Biosystems) following manufacturer's instructions. Within the same cDNA reaction, 1×RT random hexamer primers were used to generate the cDNA for RPL13A, used as a reference gene, and for pri-mir-675. To generate the cDNA for mir-675, the RT mir-675 reverse primer provided by ThermoFisher Scientific was used. For mi405, the mi405 qPCR protocol was done as it was previously described [Wallace et al., Mol. Ther. Methods Clin. Dev. 8: 121-30 (2018)]. To quantify mir-675 and mi405 levels, RNA was extracted using the total RNA protocol for the mirVana miRNA Isolation Kit (Ambion) from HEK293 cells. cDNA was generated using the High-Capacity cDNA Reverse Transcription Kit (Applied Biosystems) using a mix of random hexamer primers and specific reverse primer for pri-mir-675 and mir-675-5p. For mi405, 200 nM of the stem-loop forming primer (5′-[…]-3′) (SEQ ID NO: 144) was also used for the RT step. A custom TaqMan assay (Applied Biosystems) including 1.5 μM of Forward primer (5′-[…]-3′) (SEQ ID NO: 145), 0.7 μM of Reverse primer (5′-GTGCAGGGTCCGAGGT-3′) (SEQ ID NO: 146), and 0.2 μM of mi405 probe (5′-6FAM-ATACGACGTCCAGGAT-3′) (SEQ ID NO: 147) was then run using the CFX Connect Real Time system apparatus (Bio-Rad). RPL13A (Mm02526700_g1; Applied Biosystems) served as the reference gene. The TaqMan gene expression assay consisted of using the TaqMan Gene Expression Master mix and TaqMan probes purchased from ThermoFisher Scientific. 1× of probe was mixed with 1× of the TaqMan Gene Expression Master mix (ThermoFisher Scientific), and with 20 ng of cDNA. The mir-675- and mi405-specific primers and probes were designed to quantify only the mir-675-5p and mi405 mature sequence (see TaqMan Gene Expression Master mix protocol).

[3] = tested on: DUX4 protein; assay: Western blot of V5-tagged DUX4 protein in co-transfected HEK293 cells; conditions: CMV.DUX4-FL/CMV.eGFP, HEK293, molar ratio 1 to 3, eGFP normalizer, relative to U6-milacZ, N = 3-8
Description: Western Blots. […] 50 mM Tris (pH 7.5-8.0), 150 mM NaCl, 0.1% (v/v) SDS, 0.5% (v/v) deoxycholate, 1% (v/v) triton X-100 (Fisher Scientific) and 1 tablet of protease inhibitor (ThermoFisher Scientific) per 10 mL of buffer. The total protein extract was quantified using the DC Protein Assay (Bio-Rad). Twenty microgram samples were separated on 12% SDS-PAGE, transferred to nitrocellulose membrane, using the wet transfer system, and incubated with the following antibodies: mouse monoclonal antibody to V5 (horseradish peroxidase [HRP]-coupled) [1:5,000 in 5% milk TBST buffer (150 mM NaCl, 50 mM Tris-HCl pH 7.4 and 0.1% Tween 20 (Fisher Scientific)), R961-25; Invitrogen); rabbit polyclonal eGFP antibody (1:50,000 in 3% BSA PBS, ab290; Abcam); mouse monoclonal β-actin antibodies (1:60,000; Sigma, St Louis, MO); overnight at 4° C. When using the eGFP antibody, membranes were blocked 30 mins with 3% BSA PBS prior to blotting. eGFP-probed blots were washed five times, 5 min each with 0.5% Tween 20 (Fisher Scientific) in TBST buffer, and then incubated with HRP-coupled goat anti-rabbit secondary antibody (1:250,000 in 3% BSA PBS, 115-035-144; Jackson ImmunoResearch) for 2 hours at room temperature. V5-probed blots were washed five times, 5 min each with 0.1% Tween 20 in TBST buffer. Following washes, blots were developed using Immobilon Western HRP substrate (Millipore) and exposed to film. DUX4.V5, and eGFP quantification was assessed using ImageJ.

[4] = tested on: mir-675-5p; assay: Small-transcript northern blot of mir-675 processing in HEK293 cells; conditions: HEK293; anti-mir-675-5p biotinylated probe
Source text: Small-Transcript Northern Blots. […] (SEQ ID NO: 148)).

Molecule | fold change of all mature mir-675-5p sequences compared to U6.mir-675 [1] [%] | mir-675-5p levels compared to U6.mir-675 [2] [%] | ratio of mir-675-5p/pri-mir-675 compared to U6.mir-675 [2] [%] | Average inhibition efficiency (%) of DUX4 protein levels [3] | Average inhibition efficiency (%) of DUX4 protein levels ([3]; listed as U6-mir-675-2.1.1) | mature mir-675-5p bands on northern blot [4]
U6.mir-675-2.1.1: mir-675 construct with modified 5' and 3' flanking sequences (nucleic acid) DNA: TCTAGAGATCCGACGCCGCCATCTCTAGGCCCGCGCCGGCCCCCTCGCACAGACTTGTGGGAGAAGCTCGGCTACTCCCCTGCCCCGGTTAATTTGCATATAATATTTCCTAGTAACTATAGAGGCTTAATGTGCGATAAAAGACAGATAATCTGTTCTTTTTAATACTAGCTACATTTTACATGATAGGCTTGGATTTCTATAAGAGATACAAATACTAAATTATTATTTTAAAAAACAGCACAAAAGGAAACTCACCCTAACTGTAAAGTAATTGTGTGTTTTGAGACTATAAATATCCCTTGGAGAAAAGCCTTGTTTGCCCCAGGGTCTGGTGCGGAGAGGGCCCACAGTGGACTTGGTGACGCTGTATGCCCTCACCGCTCAGCCCCTGGGGATAACTCCTAATCACACTTTTTT | 213±51 | 282±34 | 207±38 | 83±3% | 83 ± 3 (N = 3) % | detectable mir-675 mature sequences
U6.mir-675F2: U6 mir-675 construct with H1.mir-675-like flanks and cPPT/CTS sequence (nucleic acid) DNA: TTTTAAAAGAAAAGGGGGGATTGGGGGGTACAGTGCAGGGGAAAGAATAGTAGACATAATAGCAACAGACATACAAACTAAAGAATTACAAAAACAAATTACAAAAATTCAAAATTTTTCTAGAGATCCGACGCCGCCATCTCTAGGCCCGCGCCGGCCCCCTCGCACAGACTTGTGGGAGAAGCTCGGCTACTCCCCTGCCCCGGTTAATTTGCATATAATATTTCCTAGTAACTATAGAGGCTTAATGTGCGATAAAAGACAGATAATCTGTTCTTTTTAATACTAGCTACATTTTACATGATAGGCTTGGATTTCTATAAGAGATACAAATACTAAATTATTATTTTAAAAAACAGCACAAAAGGAAACTCACCCTAACTGTAAAGTAATTGTGTGTTTTGAGACTATAAATATCCCTTGGAGAAAAGCCTTGTTTGCCCCAGGGTCTGGTGCGGAGAGGGCCCACAGTGGACTTGGTGACGCTGTATGCCCTCACCGCTCAGCCCCTGGGGAATTCTTCGATTCTGCTTTTTT | 181±34 | 882±108 | 918±169 | 79 ± 6 (N = 3) % |  | detectable mir-675 mature sequences
